The nanobody polyreactivity screen of Harvey et al. (2022)

Experiment: yeast display, Sf9 membrane polyspecificity reagent, FACS + sequencing; frameworks hold sequencing errors
Method in brief: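 Sorting gates, low and high (top ~1%), were placed on anti-HA fluorescence to track expression and on streptavidin fluorescence to track reagent binding. A clone's polyreactivity label is taken from the gate it came out of. The reagent was 10% biotinylated, detergent-solubilized Sf9 membrane, applied for 1 hour at 4 °C to galactose-induced yeast display cells.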

| Sequence | polyreactivity (PSR sort gate) |
| --- | --- |
| QVQLVESGGGLVQAGGSLRLSCAASGSTFYYYTMGCYRQAPGKEREFVAAITRSGGSTYYADSVKGRFTISRDNAKNTVYLQMNSLKPEDTAVYYCAATRQRVKSEYWGQGTQVTVSS | low polyreactivity |
| QVQLVESGGGLVQAGGSLRLSCAASGSTFYYYTMGWYRQAPGKEREFVAAITRSGGSTYYADSVKGRFTISRDNSKNTVYFQMNSLKPEDTAVYYCNVDGTSSSPFVQKHKEMDYWGQGTQVTVSS | low polyreactivity |
| QVQLVESGGGLVQAGGSLRLSCAASGSTFYYYVMGWYRQAPGKERELVATITSGGSTNYADSVKGRFTISRDNAKNTVYLQMNSLKPEDTAVYYCAADWYLIIARSRPTLDYDYWGQGTQVTVSS | low polyreactivity |
| QVQLVESGGGLVQAGGSLRLSCAASGSTIAGNAMGWYRQAPGKERELVAVITRGGSTNYADSVKGRFTISRDNAKNTVSLQMNSLKPEDTAVYYCARYRFLLDYWRGGYYWGQGTQVTVSS | high polyreactivity |
| QVQLVESGGGLVQAGGSLRLSCAASGSTIDGYAKGWYTQAPGKEREFVAAISFSSASTYYADSVKGRFTISSDNAKNTFYLQMNSLIPEDTAVYDCAASYKGLWHGDYDYWGQGTQVTVSS | low polyreactivity |
| QVQLVESGGGLVQAGGSLRLSCAASGSTIEPYAMGWYRQAPGKEREFVAVITLSGGTTYYADSVKGRFTISRDNAKNTVYLQMHSLKPEDTAVYYCNAQYRKARVDEYYYWGQGTQVTVSS | high polyreactivity |
| QVQLVESGGGLVQAGGSLRLSCAASGSTIFENVMGWYRQAPGKEREFVAAINTSGGSTYYADSVKGRFTISRDNAKNTVYLQMNSLKPEDTAVYYCARDSYWEMDYWGQGTQVSVSS | low polyreactivity |
| QVQLVESGGGLVQAGGSLRLSCAASGSTIGFYTMGWYRQAPGKERELVATISYSGGDTYYADSVKGRFTISRDNAKNTVYLQMNSLKPEDTAVYYCAADLGDYVTTYSWLDSWGQGTQVTVSS | low polyreactivity |
| QVQLVESGGGLVQAGGSLRLSCAASGSTIGRYTMGWYRQAPGKERELVAAITGSGAGTYYADSVKGRFTISRDNAKNTVYLQMNRLKPEDTAVYYCNTVFRGGQFRYVRGVKYGYWGQGTQVTVSS | high polyreactivity |
| QVQLVESGGGLVQAGGSLRLSCAASGSTIGSYAMGWYRQAPGKERELVAVITGGGDTNYADSVKGRFTISRDNAKNTVYLQMNSLKPEDTAVYYCAAEGSFYRYHVGSDYWGQGTQLTVSS | low polyreactivity |
| QVQLVESGGGLVQAGGSLRLSCAASGSTIGYNAMGWYRQAPGKERELVAAISGSGTDTRYADSVKGRFTISRDNAKNTFYLQMNSRNPEDTAVYYCAVSVVYRGSKRVRQNPMEYWGQGTQVTVSS | high polyreactivity |
| QVQLVESGGGLVQAGGSLRLSCAASGSTILTYVMGWYRQAPGKERELVAAISYSGGRSYYADSVKGRFTISRDTAKNTVYLQMNSLKPEDTAVYYCAAYRVNKSSRTMDYWGQGTQVTVSS | high polyreactivity |
| QVQLVESGGGLVQAGGSLRLSCAASGSTINFYAMGWYRQAPGKERELVAAIRVSSGSTYYADSVKGRFTISRDNAKNTVYLQMDSLKPEDTAVYYCAAYLKVRSPRDGYDYWGQGTQVTVSS | high polyreactivity |
| QVQLVESGGGLVQAGGSLRLSCAASGSTINIYAMGWYRQAPGKERELVAAISGRGGSTYYADSVKGRFTISRDNAKNTVYLQMNSLKPEDTAVYYSAASGYKVGSYRARMYYWGQGTQVTVSS | high polyreactivity |
| QVQLVESGGGLVQAGGSLRLSCAASGSTIPLYAMGWYRQAPGKERELVAAISRSGGRTYYADSVKGRFTISRDNAKNTVYLQMNSLKPEDTAVYYCDSAQGSRVDYWGQGTQVTVSS | high polyreactivity |
| QVQLVESGGGLVQAGGSLRLSCAASGSTIPPYAMGWYRQAPGNERELVAAITSGGSTYYADSVKGRFTISRDNAKNTVYLQMNSLKPEDTAVYYCAASWDPWEYDYWGQGTQVTVSS | low polyreactivity |
| QVQLVESGGGLVQAGGSLRLSCAASGSTISYYAMGWYIQAPGKERELVAAISQTGGTTYYADSVKGRFTISRDNAKNTVYLQMNSLKPEDTAVYYCNAARPGGHYWGQGTQVTVSS | low polyreactivity |
| QVQLVESGGGLVQAGGSLRLSCAASGSTISYYAMGWYRQAPGKERELVAAITWNGGSTYYADSVKGRFTISRDNAKNTVYLQMNSLKPEDTAVYYCAKDTYYYDYDYWGQGTQVTVSS | low polyreactivity |
| QVQLVESGGGLVQAGGSLRLSCAASGSTIVLNDKRCYRQAPGKERELVAAITWSGGSTYYADSVKGRFTISRDNAKNTVYLQMNSLKPEDTAVYYCNVDYYGWPYWYEYDYWGQGTQVTVSS | high polyreactivity |
| QVQLVESGGGLVQAGGSLRLSCAASGSTIVYYAMGWYRQAPGKERELVAAITSDGSTDYADSVKGRFTISRDNAKNTVYLQMNSLKPEDTAVYYCAVVTFYFCTDYYDVDYWGQGTQVTVSS | low polyreactivity |
| QVQLVESGGGLVQAGGSLRLSCAASGSTIYAYAMGWYRQAPGKERELVAAIDSGGSTYYADSVKGRFTISRDNAKNTVYLQMNSLKPEDTAVYYCAVRHRYTRAYWGRDYWGQGTQVTVSS | low polyreactivity |
| QVQLVESGGGLVQAGGSLRLSCAASGSTIYPNAMGWYRQAPGKERELVARISRTGGSTYADSVKGRFTISRDNAKNTVYLQMNSLIPEDSAVYYCARSYASFSWLRTKEPYEYWGQGTQVTVSS | low polyreactivity |

| Sequence | polyreactivity (PSR sort gate) |
| --- | --- |
| QVQLVESGGGLVQAGGSLRLSCAASGSTIYPNAMGWYRQAPGKERELVAVISSGGSTYYADSVKGRFTISRDNAKNTVYLLMNSLKPVDTAVYYCAADRGTVSYLYSPRAVDYWGQGTQVTVSS | low polyreactivity |
| QVQLVESGGGLVQAGGSLRLSCAASGSTIYPNAMGWYRQAPGQERELVAVISSGGSTYYADSVKGRFTISRDNAKNTVYLQMNSLKPEDTAVYYCAADRGTVSYLYSPRAVDYWGQGTQVTVSS | low polyreactivity |
| QVQLVESGGGLVQAGGSLRLSCAASGSTIYWYAMGWYRQAPGKERELVAAITDSGDDTYYADSVKGRFTISRDNAKKTVYLQMNSLKPVDTAVYYCAGEAWSVAPYEYWGQGTQVTVSS | low polyreactivity |
| QVQLVESGGGLVQAGGSLRLSCAASGSTIYYAMGWYRQAPGKERELVAAISYSGGSTRYADSVKGRFTISRDNAKNTVYLEMNFLKPEDTSVYYCAAPRKYYYGESPLDYWGQGTQVTVSS | high polyreactivity |
| QVQLVESGGGLVQAGGSLRLSCAASGSTIYYNAMGWYRQAPGKERELVARISRSGGSTYADSVKGRFTISRDNAKNTVYLQMNSVKPEDTAVYYCNADAYGTPEFSSYAVRYDYWGQGTQVTVSS | low polyreactivity |
| QVQLVESGGGLVQAGGSLRLSCAASGSTIYYYAMGWYRQAPGKERELVASISDDGSTNYADSVKGRFTISRDNAKNTVYLQMNSLKPEDTAVYYCAAVWWHQFGSAWYQMGYWGQGTQVTVSS | low polyreactivity |
| QVQLVESGGGLVQAGGSLRLSCAASGSTLAFYAMGWYRQAPGKERELVAAIRRGGSTYYADSVKGRFTISRDNAKNTVYLQMNSLKPEDTAVYYCAARYRRVSYYYWGQGTQVTVSS | high polyreactivity |
| QVQLVESGGGLVQAGGSLRLSCAASGSTLAIYAMGCYRQAPGKERELVASISRVGSTNYADSVKGRFTISRDNAKNTVYLQMNSRIPEDTAVYYCAARRWSYVILRAYYYWGQGTQETVSS | high polyreactivity |
| QVQLVESGGGLVQAGGSLRLSCAASGSTLAKYAMGWYRQAPGKERELVAAISRSGGRTYYADSEKGRFTISRDNAKNSVYLQMNSLKPEETAVYYCAARARSSRTYHDDYWGQGTQVTVSS | high polyreactivity |
| QVQLVESGGGLVQAGGSLRLSCAASGSTLAPYVKGWYIQAPGTERELVAVISTRTGRTYYADSVKGRFTISRDNAKNTVSLQMNSLKPEDTAVYYCAAAYGWSWYRYDYWGQGTQVTVSS | high polyreactivity |
| QVQLVESGGGLVQAGGSLRLSCAASGSTLAVYSMGWYRQAPGKEREFVAAISWSGVSTYYADSVKGRFTISRDNAKNTVYLQMNSLKPEDTAVYYCAAKRVRALYGGSEGGYWGQGTQVTVSS | low polyreactivity |
| QVQLVESGGGLVQAGGSLRLSCAASGSTLDLYAMGWYRQAPGKEREFVASISWSGGSTYYADSVKGRFTISRDNAKNTVYLQMNRLKPEDTAVYYCAADLVIRGSLYVSSWYDYWGQGSQVTVSS | low polyreactivity |
| QVQLVESGGGLVQAGGSLRLSCAASGSTLDVYDMGWYRKAPGKEREFVATISFSVGSTDYADSVKGRFTISRDNAKNTVYLQMNSLKPEDTAVYYCAADVSEWSNQYFDSYLRMDYWGQGTQVTVSS | low polyreactivity |
| QVQLVESGGGLVQAGGSLRLSCAASGSTLFFNARGWYRQAPGKERELVAGITDGGNTNYADSVKGRFTISRDNAKNTVYLQMNSLKPEDTAVYYCNARYSKKGESQREYDYWGQGTQVTVSS | low polyreactivity |
| QVQLVESGGGLVQAGGSLRLSCAASGSTLFNYDMGWYRQAPGKERELVAAFDWGDGTTYYADSVKGRFTISRDNAKNTVYLQMNSLKPEDTAVYYCAAEEFYSPYDYWGQGTQVTVSS | high polyreactivity |
| QVQLVESGGGLVQAGGSLRLSCAASGSTLFTYAMGWYRQAPGNERELVAAITSSGSTYYADSVKGRFTISRDNATNTVSLQMKSLKPEDTAVYYCAGPGYRYTNYYYWGQGTQVTVSS | low polyreactivity |
| QVQLVESGGGLVQAGGSLRLSCAASGSTLGINAMGWYRQAPGKERELVAAITWNGGSTYYADSVKGRFTISRDNAKNTVYLQMNSLKPEDTAVYYCAARTYSSRYYRTREGFDYYYWGQGTQVTVSS | high polyreactivity |
| QVQLVESGGGLVQAGGSLRLSCAASGSTLGQYAMGWYRQAPGKERELVAASRRGVRTYYADSVKGRFTISRDNAKNTVYFQMNSLKPEDTAVFYCAARRDVSRPVVGTMGYWGQGSQVTVSS | high polyreactivity |
| QVQLVESGGGLVQAGGSLRLSCAASGSTLGRYAMGWYRQAPGKERELVAAISSSGTTYYADSVKGRITISRDNAKNTVYLQMNSLKPEDTAVYYCNARGFRVARHAAWYQYDYWGQGTQVTVSS | high polyreactivity |
| QVQLVESGGGLVQAGGSLRLSCAASGSTLGRYTMGWSRQAPGKERELVAAIRASGTSTYYADSVKGRFTISRDNAKNTVYLQMNSLKPEDTAVYYCNALQFGTVRLDSWGLGTQVTVSS | low polyreactivity |
| QVQLVESGGGLVQAGGSLRLSCAASGSTLGRYTMGWYRQAPGKERELVATITASGGGTYYADSVKGRFTISRDTAKNTVYLQMNSLKPEDTAVYYCNAVLWYHFGYDYWGQGTQVTVSS | low polyreactivity |
